In patent publication US5480970A, “Metal chelators” (Resolution Pharmaceuticals, priority 1993, dated 1996):
Side-chain parts run from the residue outwards. [ ]: non-standard residue; d: D form. The star is where a group is joined. Picolinoyl = O=C(c1ccccn1)*; Nle = CCCC[C@H](N)C(=O)O; Chel = not defined here; Acm = CC(=O)NC*; For = O=C*

Experiments:
[1] = tested on: neutrophil receptors; experiment: Neutrophil binding assay, competition with tritiated fMLP; conditions: competition with 15 nM tritiated fMLP, 10^6 rat neutrophils, 1 hour room temperature
Protocol: Rat peripheral neutrophils were prepared for binding assay as follows: blood was obtained by cardiac puncture and anticoagulated with acid- citrate dextrose (ACD) (10%). Red blood cells were removed by sedimentation on hydroxyethyl cellulose (1.1%) for 30 min at room temperature and leukocyte-rich supernatant layered onto 65% percol. […] The remaining neutrophils were resuspended in Hanks Buffered Salt Solution (HBSS) to the desired concentration. Final neutrophil preparation consisted of cells pooled from up to 10 animals, >90% neutrophils and >95% viable by Trypan Blue exclusion.
Binding affinity of the test peptides was assessed by competing off a constant concentration of tritiated fMLP of known affinity for neutrophil receptors. 10^6 neutrophils were added to polypropylene plates containing 15 nM tritiated fMLP and varying concentrations of unlabelled test peptides in a final volume of 150 μL HBSS. […] Filters were then placed in 6 ml scintillation vials, 5 ml of scintillation fluid added (Ecolume) and vials counted using a liquid scintillation counter. […] Specific binding was the total binding less non-specific binding which was the amount of residual radioactivity bound in the presence of 10 μM unlabelled fMLP.

[2] = tested on: inflamed muscle (left leg), E. coli; experiment: In vivo uptake of Tc-99m chelates in inflamed vs non-inflamed muscle; design: species or system male Wistar rats; conditions: Inflam agent E. coli; for Inflam muscle / Uninfl muscle: time (min): RP-063 30, RP-056 45, IgG 120, others not given; for Infl:Uninfl: ratio inflamed to uninflamed muscle, time (min): RP-063 30, RP-056 45, IgG 120
Protocol: (§1) Rat inflammation studies were performed as follows. 2 male Wistar rats (Charles River, 150-200 g) were injected intramuscularly with zymosan, a yeast cell wall preparation (5 mg) or virulent E. coli (ATCC 25922, 0.1 ml of 0.5×10^9 organisms/ml) suspension into their left hindlegs 24 hours before imaging. Focal inflammation in the leg was visually detectable after 1 day. 1 mg (ca. 0.7 μMol) of the chelator was dissolved in 50 μL of dimethylsulfoxide and added to an ethanol-water mixture (1:1, 200 μL). An aliquot of Tc-99m tartarate (ca. 400 MBq) was added and transchelation allowed to proceed for 20 min. at 100° C. The Tc-99m chelate was purified by elution through a Sep Pak cartridge. The purified tracer solution was further diluted with saline to prepare an injectable (200 μL) containing about 100 μCi (3.7 MBq) of activity.
(§2) The rats were anaesthetized with somnitol (40 to 50 mg/kg), and the Tc-99m chelate solution (200 μL) was injected intravenously via the tail vein. Serial whole-body scintigrams were acquired for the first 5 minutes. Subsequently, further images were obtained at 30, 60, and 120 minutes. The rats were then killed with anaesthesia and samples of organs, urine, blood, inflamed muscle (left leg) and non-inflamed muscle (right leg) were weighted and counted in either a well-type gamma counter or in a gamma dose calibrator. The dose calculations were made based on assumption that the rat weighed 200 g and that the blood volume constituted 8% of body weight. Results are averages for two rats and are corrected for the residual dose in the tail.

[3] = In vivo biodistribution of Tc-99m chelates in rat inflammation studies; design: species or system male Wistar rats; conditions: for In vivo Distribution blood: Tc-99m chelate i.v. tail vein, average of two rats, time (min): RP-022 90, RP-043 88, RP-050 109, RP-063 30, RP-065 30, IgG 120, RP-049 not given; for In vivo Distribution GI tract / In vivo Distribution liver / In vivo Distribution kidney / In vivo Distribution urine: Tc-99m chelate i.v.; for In vivo Distribution GI tract / In vivo Distribution liver: time (min): RP-022 90, RP-043 88, RP-050 109, RP-063 30; for In vivo Distribution kidney: time (min): RP-022 90, RP-043 88, RP-050 109, RP-063 30, RP-049 not given; for In vivo Distribution urine: time (min): RP-022 90, RP-043 88, RP-050 109, RP-063 30, RP-065 30
Protocol: as §1, §2

Row | Substance | binding affinity for neutrophil receptors [1] | Inflam muscle [2] | Uninfl muscle [2] | Infl:Uninfl [2] | In vivo Distribution blood [3] | In vivo Distribution GI tract [3] | In vivo Distribution liver [3] | In vivo Distribution kidney [3] | In vivo Distribution urine [3]
1 | (Pic-Gly-Cys(Acm)-Gly)-ε-NH-Lys(-Asp-Gly-OH)-Lys-Tyr-Nleu-Phe-Leu- Nleu-for (For-[Nle]LF[Nle]YKK([Gly-Cys(Acm)-Gly-Picolinoyl])DG-OH) [RP-056, ID No. 13] | greater binding affinity for neutrophil receptors than native fMLP | 0.143 % per gm | 0.041 % per gm | 3.52 | – | – | – | – | –
2 | (Pic-Gly-Cys(Acm)-Gly)-εNH-Lys(-Gly-OH)-Tyr-Nleu-Phe-Leu-Nleu-for (For-[Nle]LF[Nle]YK([Gly-Cys(Acm)-Gly-Picolinoyl])G-OH) [RP-050, ID NO: 12] | greater binding affinity for neutrophil receptors than native fMLP | – | – | 3.17 | 3.436 % per organ | 25.777 % per organ | 20.866 % per organ | 11.470 % per organ | 14.050 % per organ
3 | (Pic-Gly-Cys-Gly)-εNH-Lys(-Gly-OH)-Tyr-Nleu-Phe-Leu-Nleu-for (For-[Nle]LF[Nle]YK([Gly-Cys-Gly-Picolinoyl])G-OH; SMILES CCCC[C@H](NC=O)C(=O)N[C@@H](CC(C)C)C(=O)N[C@@H](Cc1ccccc1)C(=O)N[C@@H](CCCC)C(=O)N[C@@H](Cc1ccc(O)cc1)C(=O)N[C@@H](CCCCNC(=O)CNC(=O)[C@H](CS)NC(=O)CNC(=O)c1ccccn1)C(=O)NCC(=O)O) [RP-022, ID NO: 11] | – | – | – | – | 3.036 % per organ | 41.285 % per organ | 35.26 % per organ | 18.82 % per organ | 8.400 % per organ
4 | (Pic-Ser-Cys(Acm)-Gly)-Lys-Pro-Pro-Arg-OH (Picolinoyl-SC(Acm)GKPPR-OH; SMILES CC(=O)NCSC[C@H](NC(=O)[C@H](CO)NC(=O)c1ccccn1)C(=O)NCC(=O)N[C@@H](CCCCN)C(=O)N1CCC[C@H]1C(=O)N1CCC[C@H]1C(=O)N[C@@H](CCCNC(=N)N)C(=O)O) [RP-065, ID NO: 10] | – | 0.125 % per gm | 0.059 % per gm | 2.1 | 3.520 % per organ | – | – | – | 53.000 % per organ
5 | (Pic-Ser-Cys(Acm)-Gly)-Thr-Lys-Pro-Pro-Arg-OH (Picolinoyl-SC(Acm)GTKPPR-OH; SMILES CC(=O)NCSC[C@H](NC(=O)[C@H](CO)NC(=O)c1ccccn1)C(=O)NCC(=O)N[C@H](C(=O)N[C@@H](CCCCN)C(=O)N1CCC[C@H]1C(=O)N1CCC[C@H]1C(=O)N[C@@H](CCCNC(=N)N)C(=O)O)[C@@H](C)O) [RP-063, ID NO: 9] | – | 0.180 % per gm | 0.050 % per gm | 3.62 | 6.370 % per organ | 5.080 % per organ | 3.050 % per organ | 4.170 % per organ | 44.710 % per organ
6 | Chel-Gly-Cys(Acm)-Gly-OH (reading uncertain; also: printed as Chel-Gly-Cys(Acm)-Gly-OH) [RP-043, ID NO: 6] | – | – | – | – | 1.016 % per organ | 52.619 % per organ | 0.953 % per organ | 4.359 % per organ | 33.950 % per organ
7 | Pic-Gly-Cys(Acm)-Gly-OH (Picolinoyl-Gly-Cys(Acm)-Gly-OH; SMILES CC(=O)NCSC[C@H](NC(=O)CNC(=O)c1ccccn1)C(=O)NCC(=O)O) [RP-049, ID NO: 8] | – | 0.077 % per gm | 0.019 % per gm | 4.24 | 0.187 % per organ | – | – | 21.700 % per organ | –
